Source: US20250026827A1 (Alector, published 2025)
Substitutions are numbered along the chain they refer to. Blank lines part the entries; values can stand above or below the binder they belong to.

Columns and labels:
mouse SIRPα on cells [1] = target: T1, mouse SIRPα on cells (mouse, UniProt P97797 32-513); test: flow cytometry;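 for FOB: antibodies tested at 1 µg/ml for 30 min on ice against receptor-expressing cells, detected with a PE-labelled secondary antibody, read as mean fluorescence intensity relative to background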
T1 construct: whole, on cells
T1 sequence (looked up): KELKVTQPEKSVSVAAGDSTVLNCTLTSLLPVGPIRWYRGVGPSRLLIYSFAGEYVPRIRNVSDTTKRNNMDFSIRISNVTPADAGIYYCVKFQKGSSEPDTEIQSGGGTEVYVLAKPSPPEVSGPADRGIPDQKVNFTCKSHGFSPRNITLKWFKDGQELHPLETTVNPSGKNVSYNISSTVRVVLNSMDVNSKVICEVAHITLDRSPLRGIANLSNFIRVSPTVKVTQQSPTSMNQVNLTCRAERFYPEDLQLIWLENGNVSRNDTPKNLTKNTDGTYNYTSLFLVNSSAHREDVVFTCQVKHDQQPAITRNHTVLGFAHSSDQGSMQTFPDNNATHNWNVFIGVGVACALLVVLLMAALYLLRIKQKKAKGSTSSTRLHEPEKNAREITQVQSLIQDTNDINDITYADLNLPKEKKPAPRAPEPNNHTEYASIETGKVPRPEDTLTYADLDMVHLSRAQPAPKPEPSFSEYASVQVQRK

[2] = target: T2, mouse SIRPβ1 on CHO cells (mouse); test: flow cytometry;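 for FOB: antibodies tested at 1 µg/ml for 30 min on ice against receptor-expressing cells, detected with a PE-labelled secondary antibody, read as mean fluorescence intensity relative to background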
T2 construct: Whole entry
T2 chain: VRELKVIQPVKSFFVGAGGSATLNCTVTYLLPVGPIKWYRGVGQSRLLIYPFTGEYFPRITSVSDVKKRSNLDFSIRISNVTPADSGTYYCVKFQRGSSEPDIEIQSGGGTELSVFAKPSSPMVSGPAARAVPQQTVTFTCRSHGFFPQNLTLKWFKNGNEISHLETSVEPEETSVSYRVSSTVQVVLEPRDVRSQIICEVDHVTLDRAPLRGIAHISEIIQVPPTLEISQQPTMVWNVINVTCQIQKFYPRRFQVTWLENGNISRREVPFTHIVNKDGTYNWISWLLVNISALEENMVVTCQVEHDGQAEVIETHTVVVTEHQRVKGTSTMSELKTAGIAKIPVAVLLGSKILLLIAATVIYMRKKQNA

human SIRPα on cells [3] = target: T3, human SIRPα on cells (human, UniProt P78324 31-504); test: flow cytometry;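 for FOB: antibodies tested at 1 µg/ml for 30 min on ice against receptor-expressing cells, detected with a PE-labelled secondary antibody, read as mean fluorescence intensity relative to background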
T3 construct: Whole entry

[4] = target: T4, human SIRPβ1 isoform 1 on cells (human, UniProt O00241 30-398); test: flow cytometry;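 note: antibodies tested at 1 µg/ml for 30 min on ice against receptor-expressing cells, detected with a PE-labelled secondary antibody, read as mean fluorescence intensity relative to background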
T4 construct: On CHO cells (low level), on BWZ/BW5147.G.1.4 cells (reporter cells co-express human DAP12) or on primary human myeloid cells; also called huSIRPβ1; BWZ-huSIRPβ1

mouse SIRPα D1-Fc = target: T5, mouse SIRPα D1-Fc (mouse, UniProt P97797 32-150, limits assumed); test: Octet
T5 construct: domain: D1
T5 sequence (looked up): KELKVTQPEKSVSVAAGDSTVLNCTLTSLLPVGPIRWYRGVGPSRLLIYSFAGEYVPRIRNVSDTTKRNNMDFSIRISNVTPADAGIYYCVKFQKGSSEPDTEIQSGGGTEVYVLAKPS

mouse SIRPα on cells [5] = target: T1, mouse SIRPα on cells; test: flow cytometry; remark: listed apart in the source
[6] = target: T2, mouse SIRPβ1 on CHO cells; test: flow cytometry
[7] = target: T6, human SIRPα domain 1 (D1) Fc fusion (human, UniProt P78324 32-149); test: Octet
T6 construct: also called human SIRPα D1-Fc; Human SIRPα Fc; not shown: C-terminal human IgG1 Fc

human SIRPα on cells [8] = target: T3, human SIRPα on cells; test: flow cytometry; remark: listed apart in the source

T4 sequence (O00241 30-398): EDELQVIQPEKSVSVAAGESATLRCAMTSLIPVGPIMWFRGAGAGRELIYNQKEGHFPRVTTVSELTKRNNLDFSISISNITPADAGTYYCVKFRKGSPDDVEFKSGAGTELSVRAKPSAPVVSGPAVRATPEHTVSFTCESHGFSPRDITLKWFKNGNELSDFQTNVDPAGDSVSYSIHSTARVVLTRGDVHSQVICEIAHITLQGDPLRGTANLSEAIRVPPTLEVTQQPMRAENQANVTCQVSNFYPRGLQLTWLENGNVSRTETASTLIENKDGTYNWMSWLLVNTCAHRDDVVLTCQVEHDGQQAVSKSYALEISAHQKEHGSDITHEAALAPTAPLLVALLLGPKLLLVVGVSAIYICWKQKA

FOB (mouse SIRPα on cells [1]): 1.2 fold over background
FOB [2]: 1.1 fold over background
FOB (human SIRPα on cells [3]): 2.1 fold over background
FOB [4]: 1.7 fold over background
binding result (mouse SIRPα D1-Fc): no binding (tested: 100 nM)
binding result (mouse SIRPα on cells [5]): no binding (tested: 1 ug/ml)
binding result [6]: no binding (tested: 1 ug/ml)
B1: SB-36 (antibody, V domains shown)
VH: QVQLVQSGAEVKKPGASVKVSCKASGYTFTSYYMHWVRQAPGQGLEWMGIINPSGGSTSYAQKFQGRVTMTRDTSTSTVYMELSSLRSEDTAVYYCAREGPEQLWYLDYWGQGTLVTVSS
VL: DIQMTQSPSSVSASVGDRVTITCRASQGISSWLAWYQQKPGKAPKLLIYAASSLQSGVPSRFSGSGSGTDFTLTISSLQPEDFATYYCQQAFSHRTFGGGTKVEIK
notes: IgG

FOB (mouse SIRPα on cells [1]): 0.9 fold over background
FOB [2]: 1.2 fold over background
FOB (human SIRPα on cells [3]): 2.4 fold over background
FOB [4]: 2.8 fold over background
binding result [7]: no binding (tested: 100 nM)
binding result (mouse SIRPα D1-Fc): no binding (tested: 100 nM)
binding result (mouse SIRPα on cells [5]): no binding (tested: 1 ug/ml)
binding result [6]: no binding (tested: 1 ug/ml)
binding result (human SIRPα on cells [8]): no binding (tested: 1 ug/ml)
B2: SB-18 (antibody, V domains shown)
VH: QVQLVQSGAEVKKPGSSVKVSCKASGGTFSSYAISWVRQAPGQGLEWMGGIIPIFGTANYAQKFQGRVTITADESTSTAYMELSSLRSEDTAVYYCARAKPRGDYGMDVWGQGTTVTVSS
VL: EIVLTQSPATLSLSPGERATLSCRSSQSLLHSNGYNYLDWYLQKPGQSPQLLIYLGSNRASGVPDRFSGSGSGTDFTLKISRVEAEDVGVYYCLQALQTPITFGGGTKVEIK
notes: IgG

FOB (mouse SIRPα on cells [1]): 0.9 fold over background
FOB [2]: 1.4 fold over background
FOB (human SIRPα on cells [3]): 1.9 fold over background
FOB [4]: 1.4 fold over background
binding result [7]: no binding (tested: 100 nM)
binding result (mouse SIRPα D1-Fc): no binding (tested: 100 nM)
binding result (mouse SIRPα on cells [5]): no binding (tested: 1 ug/ml)
binding result [6]: no binding (tested: 1 ug/ml)
binding result (human SIRPα on cells [8]): no binding (tested: 1 ug/ml)
B3: SB-22 (antibody, V domains shown)
VH: EVQLVESGGGLVQPGGSLRLSCAASGFTVSSNYMSWVRQAPGKGLEWVSVIYSDGSTYYADSVKGRFTISRDNSKNTLYLQMNSLRAEDTAVYYCARPTRYGYDRLGMDVWGQGTTVTVSS
VL: DIQMTQSPSSVSASVGDRVTITCRASQGISSWLAWYQQKPGKAPKLLIYAASNLQSGVPSRFSGSGSGTDFTLTISSLQPEDFATYYCQQGNSYPITFGGGTKVEIK
notes: IgG

FOB (mouse SIRPα on cells [1]): 1.4 fold over background
FOB [2]: 1.5 fold over background
FOB (human SIRPα on cells [3]): 2 fold over background
FOB [4]: 2 fold over background
binding result [7]: no binding (tested: 100 nM)
binding result (mouse SIRPα D1-Fc): no binding (tested: 100 nM)
binding result (mouse SIRPα on cells [5]): no binding (tested: 1 ug/ml)
binding result [6]: no binding (tested: 1 ug/ml)
binding result (human SIRPα on cells [8]): no binding (tested: 1 ug/ml)
B4: SB-16 (antibody, V domains shown)
VH: QVQLVQSGAEVKKPGSSVKVSCKASGGTFSSYAISWVRQAPGQGLEWMGSIIPIFGTANYAQKFQGRVTITADESTSTAYMELSSLRSEDTAVYYCARANYYDSSGYSGLDLWGRGTLVTVSS
VL: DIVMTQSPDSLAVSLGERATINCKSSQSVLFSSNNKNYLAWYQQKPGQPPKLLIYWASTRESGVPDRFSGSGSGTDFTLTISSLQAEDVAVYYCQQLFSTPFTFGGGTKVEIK
notes: IgG

FOB (mouse SIRPα on cells [1]): 1 fold over background
FOB [2]: 1.5 fold over background
FOB (human SIRPα on cells [3]): 2 fold over background
FOB [4]: 3.7 fold over background
binding result [7]: no binding (tested: 100 nM)
binding result (mouse SIRPα D1-Fc): no binding (tested: 100 nM)
binding result (mouse SIRPα on cells [5]): no binding (tested: 1 ug/ml)
binding result [6]: no binding (tested: 1 ug/ml)
binding result (human SIRPα on cells [8]): no binding (tested: 1 ug/ml)
B5: SB-7 (antibody, V domains shown)
VH: QVQLVQSGAEVKKPGSSVKVSCKASGGTFSSYAISWVRQAPGQGLEWMGGIIPIFGTASYAQKFQGRVTITADESTSTAYMELSSLRSEDTAVYYCARETRQDSAHYYGMDVWGQGTTVTVSS
VL: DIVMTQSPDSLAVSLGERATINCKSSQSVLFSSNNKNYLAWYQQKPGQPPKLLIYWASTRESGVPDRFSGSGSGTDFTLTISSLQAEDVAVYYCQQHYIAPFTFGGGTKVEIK
notes: IgG

FOB (mouse SIRPα on cells [1]): 1.2 fold over background
FOB [2]: 1.3 fold over background
FOB (human SIRPα on cells [3]): 2.2 fold over background
FOB [4]: 2.6 fold over background
binding result [7]: no binding (tested: 100 nM)
binding result (mouse SIRPα D1-Fc): no binding (tested: 100 nM)
binding result (mouse SIRPα on cells [5]): no binding (tested: 1 ug/ml)
binding result [6]: no binding (tested: 1 ug/ml)
binding result (human SIRPα on cells [8]): no binding (tested: 1 ug/ml)
B6: SB-20 (antibody, V domains shown)
VH: B5 VH with G50S, S59N, E99D, T100G, Q102E, D103Y, S104G, A105G
VL: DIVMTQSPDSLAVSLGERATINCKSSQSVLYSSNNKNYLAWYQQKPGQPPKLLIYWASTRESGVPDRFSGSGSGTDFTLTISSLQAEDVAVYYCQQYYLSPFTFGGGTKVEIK
notes: IgG
